# Source: PMC12947862, “Oligomerization enables the selective targeting of an intrinsically disordered region by a small molecule” (Science Advances, 2026)
# B1: AR AD fragment transactivation unit 5 (Tau-5*; residues 330 to 448) [human (from the printed UniProt entry)] / itself (parent)
# chain: AAGSSGTLELPSTLSLYKSGALDEAAAYQSRDYYNFPLALAGPPPPPPPPHPHARIKLENPLDYGSAWAAAAAQCRYGDLASLHGAGAAGPGSGSPSAAASSSWHTLFTAEEGQLYGPC
# Variants of: B1
# Assay: 2D 1H-15N NMR, concentration-dependent CSPs (self-association)
# Settings: with itself; protein concentration from 25 to 400 μM; read off a plot
row,response [p.p.m.],Variant
1,0.02,chain 1 G65A S66A G78A
2,0.019,chain 1 C75Y
3,0.013,chain 1 G78A
4,0.0068,chain 1 W104A H105A F108A
5,0.005,chain 1 A69P
6,0.0065,chain 1 L107P
